For orientation: Kd means the equilibrium constant for the complex coming apart.

The experiment deals with Amyloid-beta(1-42) Aβ(1-42) (Homo sapiens, UniProt P05067). Put plainly: BLI. Background: In BLI a coated tip is dipped into the sample, and binding shifts an interference pattern.

The molecule RPITRLRTHQNR [DB3] displayed a dissociation constant Kd of 75 µM. For the molecule RPITRLRTHQNRRPITRLRTHQNR [DB3DB3], the dissociation constant Kd amounted to 1 µM.

The record behind these values is paper PMC4841555 (2016).
